B1: antibody 119 variant Mut/mut_V34M (antibody, human IgG1, V domains shown)
VH: EVQLLESGGGVVQPGGSLRLSCAASGFSFSNFAMTWVRQAPGKGLEWVSTIGSGDTYYADSVKGRFTISRDNSKNTLYLQMNSLRAEDTAVYYCAKDSTVSWSGDFFDYWGQGTLVTVSS
VL: EIVLTQSPATLSVSPGERATLSCRASQNVKNDLAWYQQKPGQAPRLLIYAARIRETGIPARFSGSGSGTEFTLTISSLQSEDFAVYYCQQYYDWPPFTFGGGTKVEIK
notes: Human IgG1 with L234A/L235A/G237A/N297A; Labels are in the order VL/VH
B2: S163 (scFv, V domains shown)
VH: DVQLVESGGGLVRPGESLRLSCAASGFTFTNYAVTWVRQAPGEGLEWVSLISVTGTTYYADSVKGRFTISRDNSKSTLYLQMNGLRAEDTAVYYCAKVTWKNVFDYWGLGTLVTVSS
VL: EIVLTQSPGTLSVSPGERATFSCRASQTVGSKLAWYQQKPGQAPRLLIYDANTRATGIPARFSGSGSGTEFTLTISSLQSEDFAVYYCQQHTDWPPYTFGGGTKVEIK
B3: S164 (scFv, V domains shown)
VH: DVQLVESGGGLVRPGESLRLSCAASGFTFTNYAVTWVRQAPGEGLEWVSLISVTGTTYYADSVKGRFTISRDNSKSTLYLQMNGLRAEDTAVYYCAKVTWKNVFDYWGLGTLVTVSS
VL: EIVLTQSPGTLSVSPGERATFSCRASQTVGSKLAWYQQKPGQAPRLLIYDANTRATGIPARFSGSRSGTEFTLTISSLQSEDFAVYYCQQHTDWPPYTFGGGTKVEIK
B4: S162 (scFv, V domains shown)
VH: DVQLVESGGGLVRPGESLRLSCAASGFTFTNYAVTWVRQAPGEGLEWVSLISVTGTTYYADSVKGRFTISRDNSKSTLYLQMNSLRAEDTAVYYCAKVTWKNVFDYWGLGTLVTVSS
VL: EIVLTQSPGTLSVSPGERATFSCRASQTVGSKLAWYQQKPGQAPRLLIYDANTRATGIPARFSGSGSGTEFTLTISSLQSEDFAVYYCQQHTDWPPYTFGGGTKVEIK

Key:
[1] = biological target: T1, human SIRP-α v1 D1 domain (human, UniProt P78324 31-149); assay: SPR, antibody immobilised on GLC chip
T1 construct: also called human v1; human α v1
Procedure: (§1) All experiments were performed at 25° C. using a SPR-based ProteOn XPR36 biosensor (BioRad, Inc, Hercules, Calif.) equipped with GLC or NLC sensor chips. […] Purification was carried out by standard Protein A affinity column chromatography and eluted antibodies were stored in PBS buffer.
(§2) For the method using GLC chip, the analytes were injected and flowed over anti-SIRPα antibodies immobilized (˜1000 RUs) on GLC chips using Proteon™ Amine Coupling Kit. For the immobilization step, GLC chip was activated with EDAC/Sulpho-NHS 1:1 (Biorad) diluted 1/100 for 300 s at 25 μL/min. Anti-SIRPα antibodies were diluted to 80 nM concentration in 10 mM sodium acetate buffer pH 4.5 and immobilized to the chip at 30 μL/min for 50 s. Chip was inactivated with ethanolamine for 300 s at 25 μL/min. The analytes (e.g., SIRP-α from different species, SIRP-β, SIRP-γ) were injected in a “one-shot” kinetic mode at nominal concentrations of 100, 33, 11, 3.7, 1.2 and 0 nM. Association times were monitored for 90 s at 100 μL/min, and dissociation times were monitored for 1200 s. The surfaces were regenerated with a 2:1 v/v blend of Pierce IgG elution buffer/4M NaCl.

[2] = biological target: T2, human SIRP-α v2 D1 domain (human); assay: SPR, antibody immobilised on GLC chip
T2 construct: also called human v2; human α v2
Procedure: as §1, §2

[3] = biological target: T3, cynomolgus SIRP-α D1 domain (SEQ ID NO:11) (cynomolgus, UniProt Q5TFQ8 30-148 (human entry), limits assumed); assay: SPR, antibody immobilised on GLC chip
T3 construct: also called cyno1
T3 chain: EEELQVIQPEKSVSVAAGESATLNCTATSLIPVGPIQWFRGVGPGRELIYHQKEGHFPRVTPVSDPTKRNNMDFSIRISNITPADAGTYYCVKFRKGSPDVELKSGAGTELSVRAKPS
Procedure: as §1, §2

[4] = biological target: T4, mouse 129 SIRP-α D1 domain (mouse (129 strain), UniProt P97797 32-150); assay: SPR
T4 construct: also called m129
T4 chain: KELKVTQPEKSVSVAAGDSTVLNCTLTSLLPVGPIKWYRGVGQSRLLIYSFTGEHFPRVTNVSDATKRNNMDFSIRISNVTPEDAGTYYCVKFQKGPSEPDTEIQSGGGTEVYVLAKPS
Procedure, shortened: (§3)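 Antibody clones in scFv-Fc format were captured from pre-filtered culture media onto anti-human IgG Fc, amine-coupled (about 4000 RU) on a GLC chip of a ProteOn XPR36 instrument. SIRP analytes were flowed in PBS pH 7.4 with 0.01% Tween-20 at 25° C. Data were double-referenced against interspot and buffer-blank responses. Dissociation rate constants (koff) were derived by fitting a 1:1 Langmuir model.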

[5] = biological target: T5, C57BL/6 mouse SIRP-α D1 domain (mouse (C57BL/6 strain), UniProt P97797 32-148); assay: SPR
T5 sequence: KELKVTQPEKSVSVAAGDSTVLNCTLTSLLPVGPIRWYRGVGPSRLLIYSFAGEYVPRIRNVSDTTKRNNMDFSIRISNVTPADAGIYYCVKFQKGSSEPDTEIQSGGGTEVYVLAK
Procedure, shortened: as §3

[6] = biological target: T6, high affinity SIRP-α D1 variant CV1-3; assay: SPR, Langmuir fit
T6 chain: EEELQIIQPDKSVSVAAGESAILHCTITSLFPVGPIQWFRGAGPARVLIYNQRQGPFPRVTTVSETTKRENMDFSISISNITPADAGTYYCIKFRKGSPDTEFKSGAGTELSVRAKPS
Procedure, shortened: as §3

[7] = biological target: T7, human SIRPγ isoform 1 (human, UniProt Q9P1W8 29-147); assay: SPR, Langmuir fit
T7 construct: also called SIRPg; sirpg
T7 sequence (Q9P1W8 29-147 limits assumed): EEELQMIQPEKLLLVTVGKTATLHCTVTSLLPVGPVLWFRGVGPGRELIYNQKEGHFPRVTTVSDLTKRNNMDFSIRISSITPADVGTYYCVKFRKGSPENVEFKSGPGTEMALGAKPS
Procedure, shortened: as §3

[8] = biological target: T8, human SIRP-α v1 D1 domain (human, UniProt P78324 31-149); assay: SPR, Langmuir fit
T8 construct: also called human v1
Procedure, shortened: as §3

[9] = biological target: T9, human SIRP-α v2 D1 domain (human); assay: SPR, Langmuir fit
T9 construct: also called human v2
Procedure, shortened: as §3

[10] = biological target: T10, cynomolgus SIRP-α D1 domain (cyno2) (cynomolgus monkey, UniProt Q5TFQ8 30-148 (human entry), limits assumed); assay: SPR, Langmuir fit
T10 chain: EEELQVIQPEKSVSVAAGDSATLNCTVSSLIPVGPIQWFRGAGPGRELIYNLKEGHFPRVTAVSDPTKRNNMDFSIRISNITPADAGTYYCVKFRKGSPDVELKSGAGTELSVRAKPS
Procedure, shortened: as §3

[11] = biological target: T11, human SIRPβ isoform 1 (human, UniProt O00241 30-148); assay: SPR, Langmuir fit
T11 construct: also called SIRPb; sirpb1
T11 sequence (O00241 30-148 limits assumed): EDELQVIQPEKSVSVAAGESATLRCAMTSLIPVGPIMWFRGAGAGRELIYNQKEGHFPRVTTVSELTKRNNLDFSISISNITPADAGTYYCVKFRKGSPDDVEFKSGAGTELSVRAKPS
Procedure, shortened: as §3

Binder | Kd [1] [nM] | Kd [2] [nM] | Kd [3] [nM] | binding result [4] | binding result [5] | koff [6] [s⁻¹] | koff [7] [s⁻¹] | koff [8] [s⁻¹] | koff [9] [s⁻¹] | koff [10] [s⁻¹] | koff [11] [s⁻¹]
B1 | 0.215 | 0.0688 | 0.118 | – | – | – | – | – | – | – | –
B2 | – | – | – | no binding (tested: Koff > 5 × 10^3 (legend)) | no binding (tested: Koff > 5 × 10^3 (legend)) | 0.00174 | 0.00315 | 0.000535 | 0.00664 | 0.000242 | 0.0017
B3 | – | – | – | no binding (tested: Koff > 5 × 10^3 (legend)) | no binding (tested: Koff > 5 × 10^3 (legend)) | 0.00134 | 0.00426 | 0.000595 | 0.00989 | 0.000408 | 0.00167
B4 | – | – | – | no binding (tested: Koff > 5 × 10^3 (legend)) | no binding (tested: Koff > 5 × 10^3 (legend)) | 0.00152 | – | – | – | 0.000318 | –
